The test system of data set [1] is keratinocytes and dermal fibroblasts. Description: In vitro scratch wound-healing assay. It is filed as cell-based, human and mouse. As for the experimental part:
A confluent monolayer of control and Agrin depleted cells in a 6-well plate was subjected to a unidirectional scratch using a 20 μl pipette tip. This was followed by washing with 1×PBS at room temperature and incubation in complete culture media at 37° C. and 5% CO2 with or without sAgrin used as indicated. Phase contrast images of the wound area were taken periodically at the indicated time-points. For some wound-healing migration assays, keratinocytes were cultured on either soft or stiff substrates within a stencil barrier (Nalge Nunc., Inc) for 18 h. Upon removal of the barrier, the cells were allowed to migrate and imaged using an Axiovert 200 inverted microscope at indicated time-points.

The subject of a further data set is HaCaT cells. As to the kind of experiment: Traction force microscopy and PIV of collective migration. The data set is classed as cell-based, human. As for the experimental part: Substrate preparation—Two-part silicone elastomer, DOWSIL CY52-276 (Dow Inc.), is first mixed thoroughly in a 1:1 weight ratio. The mixture is then poured into a 35 mm glass-bottom culture dish (iwaki 3930-035, Asahi Techno Glass Corporation, Japan) placed on a level surface, to a thickness of ˜500 μm. After pre-curing overnight, the silicone coated culture dish is further baked for 2 hours at 80° C. to fully cure. To maximize subsequent microsphere attachment, the silicone film is pre-treated with (3-aminopropyl) triethoxysilane (A3648, Sigma-Aldrich). To silanize, a 1 ml solution containing 96% v/v, 2% v/v APTES and 1% v/v acetic acid (A6283, Sigma Aldrich) is added to the glass-bottom culture dish, covering the whole silicone film, and left for 10 minutes to react. The silicone film is then twice rinsed with 96% v/v ethanol and followed by a quick dip in Milli-Q water to remove all the solution: removing solution from the film this way is preferred over blow-drying with nitrogen gas because the latter may introduce dust to the surface which subsequently affects the uniformity of attached microsphere distribution. Following this, the culture-dish is baked at 80° C. for another 2 hours to promote siloxane bond formation. For the physisorption of fluorescent latex microspheres on to the silicone film, 6 μl of 100 nm orange fluorescent (540/560) carboxylate-modified microspheres (F8800, ThermoFisher Scientific) is first diluted in 10 ml of Milli-Q water and sonicated for 10 minutes. The diluted microspheres are then passed through a 0.22 μm filter directly into a 15 ml falcon tube containing 500 μl of 500 mM MES buffer, pH 6.0 (M3671, Sigma Aldrich). The microspheres are then sonicated again for 10 minutes before being added to cover the APTES silanized silicone film within the culture dish previously prepared. The solution was left for 5 minutes to allow the microspheres to attach. […] The stiffness of silicone substrates used for TFM were determined by atomic force microscopy as per previously established protocols as described in the section below. […]

In the next data set the test system is MMP12. Description: MMP12 activity assay (gelatin and casein zymography). The data set is classed as cell-based, human. The following applies: Agrin silenced keratinocytes, increasing dose of sAgrin 24 h. As for the experimental part: MMP12 activity were monitored via Gelatin and Casein zymography as per previously published protocols. Briefly, control or Agrin depleted HaCaT cells were grown till 80-90% confluency in media without FBS. Supernatants collected from each culture dish were spun down at 10,000 rpm for 5 min and concentrated using Amicon ultra columns. Twenty microliter of medium was mixed with 2×SDS loading buffer and loaded on 10% gelatin or casein gel. The gels were washed with incubation buffer and subsequently stained with Coomassie Brilliant Blue for 1 h. The gels were de-stained for 30 min before imaging using a Chemidoc imager.

Setting [2] is: Agrin depleted cells supplemented with sAgrin.

B1: sAgrin: C-terminus recombinant Agrin fragment containing 8 amino acid 'Z8' insert and LG3 domain (SEQ ID NO: 7), His-tagged, expressed in E. coli (protein)
chain: DTLAFDGRTFVEYLNAVTESELANEIPVEKALQSNHFELSLRTEATQGLVLWSGKATERADYVALAIVDGHLQLSYNLGSQPVVLRSTVPVNTNRWLRVVAHREQREGSLQVGNEAPVTGSSPLGATQLDTDGALWLGGLPELPVGPALPKAYGTGFVGCLRDVVVGRHPLHLLEDAVTKPELRPCPTP
modifications: His tag
With B1, in data set [1] (Agrin knockdown fibroblasts and keratinocytes, 10 μg/ml sAgrin 18 h), the “scratch wound-responsive migration velocities (rescue of Agrin knockdown)” value is recorded as “in part, rescued”. Also, the “migration of MMP 1 and 10 knockdown keratinocytes” value in data set [1] (HaCaT, 10 μg/ml sAgrin 18 h) is recorded as “not restored by sAgrin treatment”. Besides, the “migratory rates with increasing concentrations of sAgrin” value in data set [1] (HaCaT/mouse keratinocytes) is “accelerated migratory rates”. Also, the “migration of MMP12 depleted keratinocytes” value in data set [1] (human and mouse keratinocytes, 10 μg/ml sAgrin 18 h) is “failed to stimulate migration”. For the same molecule, the “K17 expressing leader keratinocyte migration in vitro” value in data set [1] (sAgrin 10 μg/ml, 4 h) is “enhanced the K17 expressing leader keratinocyte migration”. The “traction force at migrating leading edge of MMP12 depleted keratinocytes” value in the data set on HaCaT cells (10 μg/ml sAgrin 18-24 h) is recorded as “failed to induce sufficient traction force”. Besides, in the data set with HaCaT cells (setting [2]), the “collective traction stress at the leading front” value is “significantly enhanced”; the “coordinated velocity fields and fluidic collective migration (PIV)” value is listed as “significantly enhanced”. For the same molecule, the “MMP12 gelatin and casein degradation catalytic activity” value in the data set with MMP12 was “restored by sAgrin supplementation in a dose-dependent pattern”.
